Reference: the Human Domainome abundance scans (Beltran et al. 2025)

B1: COUP transcription factor 1, residues 83 to 159; numbered along this chain, P10589 (parent)
chain: HIECVVCGDKSSGKHYGQFTCEGCKSFFKRSVRRNLTYTCRANRNCPIDQHHRNQCQYCRLKKCLKVGMRREAVQRG

Variants of: B1
Assay: abundance fitness (aPCA) (normalised: wild type 0, dead -1); higher = more abundant; growth selection in yeast, the domain comes from the species named
Conditions: Homo sapiens

Abundance fitness of substitutions, site by site:
C56: H -0.6 | Q -0.82 | A -0.552 | M -0.636 | E -0.87 | G -0.786 | Y -0.612 | P -1 | I -0.627 | T -1.13 | N -0.373 | F -0.506 | R -0.886 | K -0.926 | V -0.758 | D -0.815 | S -0.723
Y58: M -0.312 | R -0.458 | W -0.03 | V -0.787 | A 0.017 | G -0.18 | Q -0.231 | E 0.027 | N -0.548 | L -0.378 | K -0.366 | T -0.774 | H 0.051 | P -0.587 | D -0.046 | I -0.866 | F 0.072
L61: F -0.062 | T -0.771 | H -0.668 | D -0.799 | G -0.73 | N -0.702 | Q -0.346 | S -0.691 | I -0.163 | C -0.649 | K -0.78 | A -0.72 | V -0.555 | P -0.65 | E -0.38 | M 0.073 | R -0.84 | W -0.05 | Y -0.152
N54: T -0.059 | V -0.025 | Y -0.104 | W -0.194
C59: W -1.02 | Q -0.801 | V -0.729 | L -0.934 | F -0.978 | A -0.668 | M -0.809 | K -0.871 | E -0.696 | R -0.848 | I -1 | D -0.729 | G -0.789 | S -0.853 | P -0.541 | Y -0.789
K63: S -0.464 | D -0.874 | W -0.391 | H -0.114 | N -0.626 | C -0.17 | M -0.048 | R -0.094 | V -0.249 | I -0.402 | E -0.161 | F -0.372 | L -0.337 | Q -0.139 | A -0.254 | Y -0.277 | G -0.526 | T -0.356 | P -0.647
Q57: C -0.093 | F -0.036 | V -0.567 | E 0.183 | N 0.163 | S -0.059 | D 0.046 | M -0.121 | Y 0.296 | T -0.088 | R -0.231 | L -0.221 | G 0.07 | W 0.156 | H 0.054 | K -0.341 | P -0.042 | A -0.035
K62: P -0.573 | G -0.143 | D 0.053 | H -0.198 | L -0.015 | S 0.011 | A 0.044 | Q -0.001 | W -0.162 | V 0.086 | C -0.257 | R -0.073 | I 0.189 | N 0.146 | Y -0.512 | M -0.003
C64: F -0.903 | A -0.203 | K -0.866 | E -0.831 | H -0.577 | I -0.928 | G -0.669 | D -0.893
Q55: K -0.021 | D 0.123 | Y -0.039 | M -0.126 | C 0.008 | N -0.083 | T -0.101 | P -0.109 | F 0.069 | G -0.017 | I 0.006 | V -0.003 | R -0.074 | W 0.095 | A -0.02 | E 0.19 | H 0.017 | L -0.059
R60: V -0.157 | W 0.139 | C -0.007 | F 0.132 | Q 0.197 | D -0.535 | L 0.205 | P -0.602 | E -0.503 | T -0.007 | I -0.227 | A -0.088 | N -0.416 | S -0.56 | M 0.283
